Data on 1 protein can be found in paper PMC2148169 (The Journal of Cell Biology, 1998).

This data set concerns the molecule itself. As to the kind of experiment: SEC. (In general: In gel filtration, larger molecules generally elute earlier.)

B1: recombinant GST-Vps5p expressed in bacteria (natural protein)
chain: LEAPVWDELNHEGDKTQSLVSNSIESIGQISTNEERKDNELLETTASFADKIDLDSAPEWKDPGLSVAGNPQLEEHDNSKADDLINSLAPEQDPIADLKNSTTQFIATRESGGALFTGNANSPLVFDDTIYDANTSPNTSKSISGRRSGKPRILFDSARAQRNSKRNHSLKAKRTTASDDTIKTPFTDPLKKAEKENEFVEEPLDDRNERRENNEGKFTASVEKNILEQVDRPLYNLPQTGANISSPAEVEENSEKFGKTKIGSKVPPTEKAVAFKVEVKDPVKVGELTSIHVEYTVISESSLLELKYAQVSRRYRDFRWLYRQLQNNHWGKVIPPPPEKQSVGSFKENFIENRRFQMESMLKKICQDPVLQKDKDFLLFLTSDDFSSESKKRAFLTGSGAINDSNDLSEVRISEIQLLGAEDAAEVLKNGGIDAESHKGFMSISFSSLPKYNEADEFFIEKKQKIDELEDNLKKLSKSLEMVDTSRNTLAASTEEFSSMVETLASLNVSEPNSELLNNFADVHKSIKSSLERSSLQETLTMGVMLDDYIRSLASVKAIFNQRSKLGYFLVVIENDMNKKHSQLGKLGQNIHSEKFREMRKEFQTLERRYNLTKKQWQAVGDKIKDEFQGFSTDKIREFRNGMEISLEAAIESQKECIELWETFYQTNL
As for B1, the binding result is listed as “binds”.
